Measured values: patent US5739002A, “Method for reproducing in vitro the Proteolytic activity of the NS3 protease of hepatitis C virus (HCV)” (Istituto di Richerche di Biologia Molecolare P. Angeletti …, priority 1994, dated 1998)

Key:
HCV NS3 serine protease [1] = target: T1, HCV NS3 serine protease (Hepatitis C virus (isolate BK), UniProt P26663); assay: Activation of HCV NS3 serine protease in cultivated HeLa cells (vTF7-3 infection, plasmid cotransfection, immunoprecipitation); type: cell-based; settings: NS4A expressed transiently in HeLa cells together with the NS3 serine protease domain; no cleavage without NS4A
T1 construct: substrate NS5AB precursor

HCV NS3 serine protease [2] = target: T1, HCV NS3 serine protease; assay: Activation of HCV NS3 serine protease in an in vitro translation assay (rabbit reticulocyte extracts, NS5AB precursor substrate); type: biochemical
Text: The plasmids described in FIG. 1 can also be used for in vitro synthesis of mRNA coding for the respective HCV proteins using the purified RNA polymerase enzyme of the phage T7 (Promega).
Generally the plasmids derived from pCite-1^R were linearized using suitable restriction enzymes and transcribed using the protocols supplied by the manufacturer (Promega). These synthetic mRNA, could later be used to synthesize the corresponding proteins in extracts of rabbit reticulocytes in the presence of canine pancreas microsomal membranes. The reticulocyte extracts, the canine pancreas microsomal membranes, like all the other material required, were purchased from Promega, which also supplied the instructions for the in vitro protein syntheses process described above.
Programming the in vitro translation mixture with mRNA transcribed from pCite(NS3) it is possible to observe synthesis of a protein with the expected molecular weight (68 kDa) containing the entire NS3 serine protease domain. The mRNA transcribed from pCite(NS5AB) guides the synthesis of a precursor of 115 kDa which contains NS5A and NS5B and is thus a substrate for the proteolytic activity associated with NS3.
This peptide was added to an in vitro translation mixture simultaneously programmed with the mRNAs transcribed from the plasmids pCite(NS3) and pCite(NS5AB).

[3] = target: T2, recombinant NS3 serine protease (Hepatitis C virus (isolate BK), UniProt P26663); assay: Assay of recombinant HCV NS3 serine protease purified from E. coli on a peptide substrate (NS4A/4B junction), HPLC; type: biochemical
T2 construct: NS4A/4B peptide substrate
Procedure: The recombinant NS3 serine protease produced according to the above procedure in E. coli could be assayed for activity by cleaving a substrate that provides detectable cleavage products. The signal is preferably detectable by colorimetric or fluorometric means. Methods such as HPLC and the like are also suitable.
For example, we used, as a substrate, synthetic peptides corresponding to the NS4A/4B junction of the HCV polyprotein.
The activity assay is performed by incubating 5-1000 μM substrate and 0.05-1 μM protease in buffer containing 25 mM Tris/HCl pH 7.5, 3 mM dithiothreitol, 0.5% (w/v) CHAPS and 10% (v/v) glycerol for 1-3 hours at 22° C. The reaction is stopped by addition of trifluoracetic acid to yield a final concentration of 0.1% (w/v).
The reaction products are then separated by HPLC on a C18 reverse phase column and quantitated according to their absorbance of the far UV light.

T1 sequence (P26663 1007-1615): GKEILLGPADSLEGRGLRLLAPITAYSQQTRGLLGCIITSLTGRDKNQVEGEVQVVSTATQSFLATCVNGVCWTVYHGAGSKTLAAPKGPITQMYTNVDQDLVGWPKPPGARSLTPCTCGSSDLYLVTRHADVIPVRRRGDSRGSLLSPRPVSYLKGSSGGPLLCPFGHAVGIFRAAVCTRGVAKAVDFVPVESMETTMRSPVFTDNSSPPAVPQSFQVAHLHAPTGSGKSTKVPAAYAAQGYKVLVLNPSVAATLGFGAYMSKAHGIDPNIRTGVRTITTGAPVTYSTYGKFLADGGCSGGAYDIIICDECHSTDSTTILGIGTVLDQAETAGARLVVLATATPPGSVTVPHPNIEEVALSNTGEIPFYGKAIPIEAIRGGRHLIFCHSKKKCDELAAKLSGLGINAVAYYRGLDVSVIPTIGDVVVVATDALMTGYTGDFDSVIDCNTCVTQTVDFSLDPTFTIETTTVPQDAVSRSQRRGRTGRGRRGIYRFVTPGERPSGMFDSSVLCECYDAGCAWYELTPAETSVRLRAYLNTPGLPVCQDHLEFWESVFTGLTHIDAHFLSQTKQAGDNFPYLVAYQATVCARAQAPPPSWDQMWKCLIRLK
T2 sequence (P26663 1027-1206): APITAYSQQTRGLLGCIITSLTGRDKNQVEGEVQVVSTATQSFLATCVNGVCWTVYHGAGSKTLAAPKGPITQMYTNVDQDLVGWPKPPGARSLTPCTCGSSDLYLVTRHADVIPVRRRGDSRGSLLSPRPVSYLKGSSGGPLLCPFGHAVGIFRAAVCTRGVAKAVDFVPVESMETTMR

Row | Substance | activation of the proteolytic activity associated with NS3 (cleavage of the precursor encoded by pCite(NS4B5A)) (HCV NS3 serine protease [1]) | serine protease activity of NS3 on a substrate containing NS5A and NS5B (HCV NS3 serine protease [2]; in vitro translation, protein sequence containing NS4A present in addition to the NS3 protease domain, no activity with NS3 domain alone) | proteolytic activity of the NS3 serine protease domain on NS5AB substrate (HCV NS3 serine protease [2]; peptide added to in vitro translation mixture programmed with mRNAs from pCite(NS3) and pCite(NS5AB)) | stimulation of the proteolytic activity of the recombinant NS3 serine protease ([3]; increasing amounts of peptide, NS4A/4B junction peptide substrate, pH 7.5, 22° C., HPLC) | peptide to protease ratio at which maximal activity is reached ([3]; recombinant NS3 serine protease and synthetic peptide)
1 | NS4A: HCV non-structural hydrophobic protein of 6 kDa acting as cofactor of the NS3 serine protease | can thus activate the proteolytic activity associated with NS3 | serine protease activity of NS3 becomes evident | – | – | –
2 | SEQ ID NO:3: Synthetic peptide derived from the C-terminal portion of SEQ ID NO:2 (NS4A); carboxy terminal cysteine replaced with alpha-aminobutyric acid (Abu) | – | – | proteolytic cleavage of the substrate in the two products containing the proteins NS5A and NS5B | up to 20 fold | equimolar amounts
